Source: patent publication US20130302348A1 (MIT, published 2013)

How the values were obtained:
[1] = target: HA polypeptide of subtype H1 (Example 1 ELISA) (influenza virus, strain ); assay: ELISA on HA-coated plate, KD from a fit of fractional saturation (Example 2)
[2] = target: HA polypeptide of subtype H3 (Example 1 ELISA) (influenza virus, strain ); assay: as above
BSA = target: T1, BSA (Bos taurus, UniProt P02769); assay: ELISA, KD table (Example 2)
T1 construct: also called 1% BSA

[3] = target: HA of H1N1 influenza strain PR8 (A/Puerto Rico/8/34) (influenza virus A/Puerto Rico/8/34 …, UniProt P03452 18-565); assay: cell-based or functional assay
[4] = target: biotinylated H1 (A/Solomon Islands/03/06) HA polypeptide (influenza virus A/Solomon Islands/03/06)

T1 sequence (P02769 25-607 limits assumed): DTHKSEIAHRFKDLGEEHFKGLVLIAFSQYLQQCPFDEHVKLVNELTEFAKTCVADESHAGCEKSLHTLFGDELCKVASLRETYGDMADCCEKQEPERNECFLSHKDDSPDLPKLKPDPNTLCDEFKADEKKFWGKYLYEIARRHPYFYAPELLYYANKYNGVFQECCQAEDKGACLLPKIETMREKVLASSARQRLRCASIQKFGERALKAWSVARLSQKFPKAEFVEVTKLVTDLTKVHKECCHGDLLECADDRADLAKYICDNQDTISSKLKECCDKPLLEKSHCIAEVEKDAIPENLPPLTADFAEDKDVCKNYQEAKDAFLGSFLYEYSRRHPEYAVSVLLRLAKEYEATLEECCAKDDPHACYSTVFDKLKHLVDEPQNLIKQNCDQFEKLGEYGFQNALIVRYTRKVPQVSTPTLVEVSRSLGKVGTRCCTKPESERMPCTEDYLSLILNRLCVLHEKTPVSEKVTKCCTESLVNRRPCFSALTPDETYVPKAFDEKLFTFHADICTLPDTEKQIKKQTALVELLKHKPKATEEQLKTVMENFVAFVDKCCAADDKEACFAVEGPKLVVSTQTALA

B1: exemplary antibody (VH-1 combined with VL-1; Table 4) (antibody, V domains shown)
VH: EVQLLESGGGLVKPGQSLKLSCAASGFTFTSYGMHWVRQPPGKGLEWVAVISYDGSYKYYADSVQGRFTISRDNSKNTLYLQMNSLRAEDTAVYYCAKDSELRSLLYFEWLSQGYFNPWGAGTTLTVSS
VL: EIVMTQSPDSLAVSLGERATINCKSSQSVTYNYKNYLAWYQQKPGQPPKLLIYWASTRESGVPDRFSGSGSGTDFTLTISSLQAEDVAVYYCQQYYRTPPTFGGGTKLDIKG
notes: also called exemplary influenza antibody
[1]
  Kd: 0.074 nM
[2]
  Kd: 37.2 nM
BSA
  binding result: no binding
[3]
  IC50, microneutralization assay followed by qPCR of viral yield in MDCK cells: 0.5 µg/mL
[4]
  kon: 297000 M⁻¹ s⁻¹
